In patent US20210063414A1, “METHODS FOR PREVENTING AND/OR TREATING BONE LOSS CONDITIONS BY MODULATING IRISIN” (Dana-Farber Cancer Institute, Inc., priority 2018, published 2021):

Target: T1, integrin αV/β3 (Homo sapiens, UniProt P05106+P06756)
T1 construct: expressed in transfected cells; host or cells: HEK293T
Experiment: FAK phosphorylation in HEK293T cells with forced expression of integrin αV/β3
Format: cell-based
Details: HEK293T, forced expression of integrin αV/β3, irisin 5 minutes
Protocol: 100 nM irisin was incubated with 5 nM indicated his-tag integrins followed by immunoprecipitation using Ni-NTA agaroses. Precipitated integrins and co-precipitated irisin were analyzed by immunoblot analysis. […] HEK293T cells were seeded and incubated until 50% cell density. The cells were transfected with 0.1 μg plasmids of indicated integrins. After 48 hours, the cells were incubated with Freestyle293 medium for 3 hours and were treated with indicated concentration of irisin for 5 minutes. Cells were lysed to detect the indicated protein level using immunoblot analysis. […] MLO-Y4 cells were treated as described in FIG. 2D with addition of pretreatment of indicated antagonistic antibodies for 10 minutes. Cells were lysed to detect the indicated protein level using immunoblot analysis. […] Sclerostin mRNA level was analyzed by qRT-PCR. […]
100 nM irisin was incubated with 5 nM indicated his-tag integrins followed by immunoprecipitation using Ni-NTA agaroses. Precipitated integrins and co-precipitated irisin were analyzed by immunoblot analysis. […] Cells were treated and analyzed as FIG. 14B except using plasmids encoding integrin α5/β1 or integrin α11/β1 (FIG. 15C) integrin αV/β1(FIG. 15D). […]
Cells were harvested in RIPA buffer containing protease-inhibitor cocktail and phosphataseinhibitor cocktail. […] Protein levels were analyzed via western blot using indicated antibody. […]

T1 sequence (P06756 31-889 limits assumed): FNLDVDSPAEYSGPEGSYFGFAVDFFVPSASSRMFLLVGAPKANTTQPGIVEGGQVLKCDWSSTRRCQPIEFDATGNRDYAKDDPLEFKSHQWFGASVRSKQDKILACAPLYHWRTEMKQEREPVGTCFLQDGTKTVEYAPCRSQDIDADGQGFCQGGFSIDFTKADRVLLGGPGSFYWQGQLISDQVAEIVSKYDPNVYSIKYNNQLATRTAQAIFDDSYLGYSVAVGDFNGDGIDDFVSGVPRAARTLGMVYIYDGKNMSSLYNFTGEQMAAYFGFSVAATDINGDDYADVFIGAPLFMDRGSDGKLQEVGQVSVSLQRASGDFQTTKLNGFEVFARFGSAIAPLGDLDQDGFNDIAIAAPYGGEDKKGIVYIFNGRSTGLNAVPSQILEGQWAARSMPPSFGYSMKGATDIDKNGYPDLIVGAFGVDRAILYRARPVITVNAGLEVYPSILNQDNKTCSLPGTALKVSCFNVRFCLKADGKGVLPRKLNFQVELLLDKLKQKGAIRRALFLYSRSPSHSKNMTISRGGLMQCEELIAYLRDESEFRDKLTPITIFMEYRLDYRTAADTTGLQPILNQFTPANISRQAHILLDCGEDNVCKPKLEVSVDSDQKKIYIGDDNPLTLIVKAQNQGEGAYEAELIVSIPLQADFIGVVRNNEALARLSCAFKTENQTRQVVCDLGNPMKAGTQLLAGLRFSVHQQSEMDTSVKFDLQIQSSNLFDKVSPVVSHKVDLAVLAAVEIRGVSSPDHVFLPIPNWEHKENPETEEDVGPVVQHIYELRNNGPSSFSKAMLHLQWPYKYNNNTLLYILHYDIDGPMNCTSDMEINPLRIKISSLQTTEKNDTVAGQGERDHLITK
T1 sequence (P06756 891-1048 partner limits assumed): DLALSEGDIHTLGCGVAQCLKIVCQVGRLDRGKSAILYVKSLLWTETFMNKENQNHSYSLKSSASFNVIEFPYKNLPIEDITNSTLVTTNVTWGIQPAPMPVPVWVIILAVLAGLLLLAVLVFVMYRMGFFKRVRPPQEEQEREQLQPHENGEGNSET
T1 sequence (P05106 27-788): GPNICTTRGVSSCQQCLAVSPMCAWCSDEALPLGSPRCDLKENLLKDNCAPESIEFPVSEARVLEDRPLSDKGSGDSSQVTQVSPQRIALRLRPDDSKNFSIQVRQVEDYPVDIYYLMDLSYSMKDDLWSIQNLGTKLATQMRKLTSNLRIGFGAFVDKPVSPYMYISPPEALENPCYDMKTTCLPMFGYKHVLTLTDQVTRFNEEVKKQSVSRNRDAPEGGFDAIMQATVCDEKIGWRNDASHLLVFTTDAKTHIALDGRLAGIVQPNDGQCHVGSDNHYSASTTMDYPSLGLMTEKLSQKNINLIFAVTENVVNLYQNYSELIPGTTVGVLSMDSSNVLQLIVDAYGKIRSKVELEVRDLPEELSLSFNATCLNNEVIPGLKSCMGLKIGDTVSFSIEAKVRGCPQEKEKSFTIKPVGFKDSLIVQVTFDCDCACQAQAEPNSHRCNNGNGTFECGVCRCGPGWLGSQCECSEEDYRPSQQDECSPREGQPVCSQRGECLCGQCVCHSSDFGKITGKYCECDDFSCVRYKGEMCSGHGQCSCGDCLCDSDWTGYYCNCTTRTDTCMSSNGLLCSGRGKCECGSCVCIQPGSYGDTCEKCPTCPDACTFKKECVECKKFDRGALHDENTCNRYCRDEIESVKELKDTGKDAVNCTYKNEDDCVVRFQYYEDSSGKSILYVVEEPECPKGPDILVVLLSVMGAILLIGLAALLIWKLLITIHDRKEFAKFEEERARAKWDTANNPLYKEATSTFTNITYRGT

B1: irisin: secreted cleaved form of FNDC5; recombinant human/mouse irisin with C-terminal his tag produced in HEK293 cells (protein)
chain: DSPSAPVNVTVRHLKANSAVVSWDVLEDEVVIGFAISQQKKDVRMLRFIQEVNTTTRSCALWDLEEDTEYIVHVQAISIQGQSPASEPVLFKTPREAEKMASKNKDEVTMKE
modifications: left off: small tags and cut ends
notes: secreted cleaved form of FNDC5; recombinant human/mouse irisin with C-terminal his tag produced in HEK293 cells
- phosphorylation of FAK upon irisin treatment: not
